{
  "source": "patent US10513540B2",
  "about": "“Modulation of the immune response” (THE BRIGHAM AND WOMEN'S HOSPITAL, INC., priority 2012, dated 2019)",
  "molecules": {"B1": {"name": "CEACAM1-Fc fusion protein: mouse CEACAM1 N-domain as an Fc fusion protein; Fc for fusion protein is human (protein)", "chain": "EVTIEAVPPQVAEDNNVLLLVHNLPLALGAFAWYKGNTTAIDKEIARFVPNSNMNFTGQAYSGREIIYSNGSLLFQMITMKDMGVYTLDMTDENYRRTQATVRFHVHP", "modifications": "left off: a dimerising Fc or GST", "notes": "mouse CEACAM1 N-domain as an Fc fusion protein; Fc for fusion protein is human"}},
  "key": {"CD4+T-cells": {"tested_on": "CD4+T-cells", "assay": "In vitro re-stimulation of CD4+ T-cells from SEB-immunized mice, TIM3 expression by FACS", "assay_type": "cell-based, mouse"}, "TIM3": {"target": "T1, TIM3 (Mus musculus, UniProt Q8VIM0)", "T1 construct": "expressed in transfected cells; also crossed to Ceacam1-/-), with the transgene under the human CD2 promoter", "T1 sequence (Q8VIM0 20-281)": "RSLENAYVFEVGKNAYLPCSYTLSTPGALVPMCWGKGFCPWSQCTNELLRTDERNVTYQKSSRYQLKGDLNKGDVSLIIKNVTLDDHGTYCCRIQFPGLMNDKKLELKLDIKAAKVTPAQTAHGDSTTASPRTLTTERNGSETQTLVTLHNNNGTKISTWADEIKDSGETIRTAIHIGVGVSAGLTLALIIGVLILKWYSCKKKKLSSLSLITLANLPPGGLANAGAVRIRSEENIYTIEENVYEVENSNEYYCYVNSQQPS", "assay": "Staining of primary T cells with mouse CEACAM1 N-domain Fc fusion protein with or without blocking antibody (FIG. 9)", "assay_type": "binding", "details": "primary naive T cells of TIM3 Tg mice", "description": "Primary naïve T cells were isolated from B6 (WT) mice with transgenic (Tg) overexpression of TIM3 in T cells, wherein TIM3 is controlled by the human CD2 promotor, and TIM3 Tg mice crossed to […] (knockout) or […]. Primary T cells were stained with a mouse N-domain as an Fc fusion protein in the presence or absence of varying concentrations of a TIM3 specific monoclonal antibody, 2C12, to block binding. *, P<0.05; **, P<0.01"}, "TIM3 on primary T cells": {"tested_on": "TIM3 on primary T cells", "assay": "In vivo administration of N-CEACAM1-Fc, then in vitro stimulation of lymph node cells with anti-CD3 or SEB (FIGS. 10A-10B)", "parameters": "species or system mouse", "details": "100 μg intraperitoneally, lymph nodes at 10 days"}, "CD4+Vβ8+ T cells": {"tested_on": "CD4+Vβ8+ T cells", "details": "SEB treatment in presence or absence of fusion protein"}},
  "data": [
    {"molecule": "B1", "values": [
      {"measurement": "TIM3 up-regulation in response to SEB re-stimulation (Mean Fluorescence)", "setting": "CD4+T-cells; SEB-responsive T-cells, CEACAM1 ligation with fusion protein, in vitro re-stimulation", "result": 29, "unit": "%"},
      {"measurement": "TIM3 expression on gated CD4+ T-cells", "setting": "CD4+T-cells; in vitro, 0.5 mg/ml, 48 hours", "result": "up-regulates TIM-3 in vitro"},
      {"measurement": "Binding to TIM3 on primary transgenic T cells", "setting": "TIM3", "result": "binds in trans to TIM3"},
      {"measurement": "Induction of tolerance (proliferation, interferon gamma production)", "setting": "TIM3 on primary T cells", "result": "induce tolerance"},
      {"measurement": "T cell receptor engagement by SEB (deletion of CD4+Vβ8+ T cells)", "setting": "CD4+Vβ8+ T cells", "result": "not significantly influenced"}
    ]}
  ]
}
